Experiments:
[1] = molecular target: growth-associated protein GAP-43 (mouse (endogenous in N1E-115)) (UniProt P06837); assay: cross-linking + co-IP; 1 mM DSP added to living [35S]-labeled differentiated N1E-115 cells (15 min, room temperature, KRH); lysis in SDS, then NP-40 lysis buffer; 100,000 × g supernatant; monoclonal anti-GAP-43 (clone 91E12) and protein G plus agarose; crosslinks cleaved; two-dimensional gel, fluorography; spots cut out and counted, calmodulin cpm divided by 9/4
[2] = molecular target: growth-associated protein GAP-43 (mouse (endogenous in N1E-115)) (UniProt P06837); assay: cross-linking + co-IP; cells lysed in 1% NP-40 substitute buffer first; 1 mM DSP added to the low-speed supernatant (15 min, room temperature); glycine and SDS added; 100,000 × g supernatant; monoclonal anti-GAP-43; two-dimensional gel; spots counted, calmodulin cpm divided by 9/4

UniProt P06837, sequence (P06837 whole entry): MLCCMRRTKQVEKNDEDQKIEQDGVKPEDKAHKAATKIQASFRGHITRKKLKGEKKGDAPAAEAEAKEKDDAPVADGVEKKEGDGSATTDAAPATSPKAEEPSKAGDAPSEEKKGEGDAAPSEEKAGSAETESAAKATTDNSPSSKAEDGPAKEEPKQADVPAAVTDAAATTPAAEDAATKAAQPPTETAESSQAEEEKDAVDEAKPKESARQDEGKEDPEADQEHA

In the case of “calmodulin (from UniProt P0DP26 1-149) (natural protein)”, the calmodulin as percent of the GAP-43 in the immunoprecipitate [1] is reported as 14%, the percent of the total GAP-43 crosslinked to calmodulin [1] is reported as 25% and the radioactivity of calmodulin in the anti-GAP-43 immunoprecipitate (divided by 9/4) [1] is reported as 278 cpm. The calmodulin as percent of the GAP-43 in the immunoprecipitate [2] was 39% and the radioactivity of calmodulin in the anti-GAP-43 immunoprecipitate (divided by 9/4) [2] was 643 cpm.
